Source: patent US11578136B2, “Compositions and methods for treating cancer” (INNATE PHARMA, priority 2017, dated 2023)

How the values were obtained:
[1] = target: T1, human Ramos lymphoma cells (CD39) (Homo sapiens, UniProt P49961); assay: Antibody titration on Ramos cells by flow cytometry; type: binding; conditions: result in words
T1 construct: host or cells: Ramos human lymphoma cells
T1 sequence (P49961 1-510): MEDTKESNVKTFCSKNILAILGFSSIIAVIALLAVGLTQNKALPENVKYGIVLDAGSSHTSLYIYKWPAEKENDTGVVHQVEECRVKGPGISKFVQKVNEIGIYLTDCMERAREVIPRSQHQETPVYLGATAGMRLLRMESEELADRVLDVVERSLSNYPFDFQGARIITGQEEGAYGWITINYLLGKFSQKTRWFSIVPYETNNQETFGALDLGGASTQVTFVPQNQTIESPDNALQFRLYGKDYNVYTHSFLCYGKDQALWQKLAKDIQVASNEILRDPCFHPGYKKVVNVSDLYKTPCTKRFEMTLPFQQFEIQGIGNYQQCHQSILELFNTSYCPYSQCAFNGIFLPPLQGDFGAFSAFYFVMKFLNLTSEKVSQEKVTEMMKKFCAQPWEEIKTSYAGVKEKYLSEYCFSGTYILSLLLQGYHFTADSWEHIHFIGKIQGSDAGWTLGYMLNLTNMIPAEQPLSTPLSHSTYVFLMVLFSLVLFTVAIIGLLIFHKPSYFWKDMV
Protocol: (§1) Antibody I-394 was tested in two repeated experiments for binding to CHO cells expressing human CD39, CHO cells expressing cynomolgus (Macaca fascicularis) CD39, CHO cells expressing murine CD39, and human Ramos lymphoma cells (ATCC™, reference CRL-1596). Cells were incubated with various concentration of unlabeled anti-CD39 antibody from 30 μg/ml to 5×10^−4 μg/ml, for 30 minutes at 4° C. After washes, cells were incubated with Goat anti-mouse H+L labeled secondary antibody for 30 min at 4° C.

[2] = system: CHO cells expressing cynomolgus (Macaca fascicularis) CD39; assay: Antibody titration on CHO-cyCD39 by flow cytometry; type: binding; conditions: result in words
Protocol: as §1

[3] = system: allogenic CD4 T cells; assay: Mixed lymphocytes reaction (MLR) with ATP-activated DC; type: cell-based, human; conditions: MoDC activated with ATP plus antibody; 5 days
Protocol: Briefly, human monocytes were purified from human healthy blood and differentiated into MoDC in presence of GM-CSF and IL-4 during 6 days. Then MoDC were activated in presence of ATP (Sigma, 0.25-1 mM) during 24 hours and DC activation were assessed by analyzing CD80, CD83 and HLA-DR expression by flow cytometry. In some cases, MoDC were preincubated during 1 hours in presence of CD39 inhibitor: […] (Tocris, 250 μM), CD73 inhibitor: APCP (Tocris 50 μM), anti-CD39 blocking antibody I-394 or BY40 (for BY40 see WO2009/095478), or anti-CD73 blocking antibodies. LPS (Invivogen, 10 ng/ml) was used as positive control. To assess resulting effect of ATP-mediated DC activation on CD4 T cells activation, ATP-activated DC were washed and then incubated with allogenic CD4 T cells (ratio 1 MoDC/4 T cells) for a mixed lymphocytes reaction (MLR) during 5 days. T cells activation and proliferation were analyzed through CD25 expression and Cell Trace Violet dilution by flow cytometry (FIG. 8).

[4] = target: T2, CD39 expressed by Ramos human lymphoma cells (Homo sapiens, UniProt P49961); assay: Inhibition of the enzymatic activity of cellular CD39 in Ramos cells (Cell Titer Glo); type: cell-based
T2 construct: host or cells: Ramos human lymphoma cells
T2 sequence (P49961 1-510): T1 sequence (P49961 1-510)
Protocol: The inhibition of the CD39 enzymatic activity in CD39-expressing cells by antibodies was evaluated using Cell Titer Glo™ (Promega, reference G7571) that allows assessment of ATP hydrolysis through use of a reagent that generates a luminescent signal proportional to the amount of ATP present. The assay was thus designed to permit assessment of the inhibition of ATP hydrolyzed by CD39 in the cell culture supernatant. Briefly, 5×10^4 Ramos human lymphoma cells, 5×10^3 human CD39-, cynomolgus CD39- and mouse CD39-expressing CHO cells, were incubated 1 hour at 37° C. with anti-CD39 antibodies from 30 μg/ml to […]. Cells were then incubated with 20 μM ATP for 1 additional hour at 37° C. Plates were centrifuged for 2 min at 400 g and 50 μl cell supernatant are transferred in a luminescence microplate (white wells). 50 μl CellTiter-Glo® Reagent (CTG) was added to the supernatant and emitted light was quantified after a 5 min incubation in the dark using a Enspire™ luminometer. Anti-CD39 antibody efficacy was determined by comparing emitted light in presence of antibody with ATP alone (maximal light emission) and ATP together with cells (minimal light emission).
The inhibition by antibody I-394 of the ATPase activity of CD39 in CD39-expressing cells was evaluated using the assay used for inhibition of the enzymatic activity of cellular CD39 as described above (Methods).

[5] = target: T3, CHO cells expressing human CD39 (Homo sapiens, UniProt P49961); assay: Antibody titration on CHO-huCD39 by flow cytometry; type: binding; conditions: result in words
T3 construct: expressed in transfected cells; host or cells: CHO cells
T3 sequence (P49961 1-510): T1 sequence (P49961 1-510)
Protocol: as §1

[6] = target: T4, CHO cells expressing murine CD39 (Mus musculus, UniProt P55772); assay: Antibody titration on CHO-moCD39 by flow cytometry; type: binding; conditions: result in words
T4 construct: expressed in transfected cells; host or cells: CHO cells
T4 sequence (P55772 1-510): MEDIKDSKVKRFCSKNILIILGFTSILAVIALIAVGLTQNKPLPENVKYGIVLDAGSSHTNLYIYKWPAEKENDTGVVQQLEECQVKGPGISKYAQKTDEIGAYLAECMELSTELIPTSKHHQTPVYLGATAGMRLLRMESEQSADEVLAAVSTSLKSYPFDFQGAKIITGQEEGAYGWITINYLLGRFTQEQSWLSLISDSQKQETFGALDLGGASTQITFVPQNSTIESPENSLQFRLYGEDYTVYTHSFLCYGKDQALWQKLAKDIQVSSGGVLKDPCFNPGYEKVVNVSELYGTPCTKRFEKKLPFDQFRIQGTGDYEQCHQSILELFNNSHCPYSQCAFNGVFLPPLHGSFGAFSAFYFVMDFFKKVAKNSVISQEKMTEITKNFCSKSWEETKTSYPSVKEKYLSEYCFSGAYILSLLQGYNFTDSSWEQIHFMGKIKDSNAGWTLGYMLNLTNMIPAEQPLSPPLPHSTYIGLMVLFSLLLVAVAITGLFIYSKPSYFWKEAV
Protocol: as §1

[7] = target: T5, human CD39 (vascular isoform) (Homo sapiens, UniProt P49961); assay: ELISA titration on recombinant human CD39; type: binding; conditions: result in words
T5 sequence (P49961 1-510): T1 sequence (P49961 1-510)
Protocol: Antibody I-394 was tested for binding to recombinant human CD39 isoforms (Rec-huCD39 isoforms) having amino acid sequences shown below were coated in 96-well plate in PBS 1× at 500 ng/ml or 1 μg/ml at 4° C. overnight. Wells were washed in TBS Tween 20, and further saturated 2H at RT in TBS Blocking buffer. Dose range concentration of primary antibody was incubated in TBS blocking buffer for 2 h at RT. Wells were washed in TBS Tween 20. […] Optical density was measured on Enspire™ at OD=450.

Substance: I-394: anti-CD39 antibody, VH SEQ ID NO: 6, VL SEQ ID NO: 7; human IgG1 Fc with L234A/L235E/G237A/A330S/P331S
- binding to Ramos lymphoma cells [1]: bound
- binding to cells expressing cynomolgus CD39 (CHO-cyCD39) [2]: bound
- T cells proliferation and activation in MLR (CD25 expression, Cell Trace Violet dilution) [3]: higher T cells proliferation and activation
- potency at blocking CD39 in Ramos cells compared to all other antibodies tested [4]: greater potency
- maximum inhibition achieved, cellular CD39 ([4]; Ramos cells): 81.6%
- blocking CD39 enzymatic activity in tumor (Ramos) cells ([4]; result in words): highly potent
- binding to cells expressing human CD39 (CHO-huCD39) [5]: bound
- binding to cells expressing murine CD39 (CHO-moCD39) [6]: not
- binding to CD39 in ELISA [7]: bound
